Results published in article PMC6604950, “The ChlD subunit links the motor and porphyrin binding subunits of magnesium chelatase” (Biochemical Journal, 2019).

T1: ChlH (purified recombinant, Synechocystis) (Synechocystis sp. PCC 6803, UniProt P73020 1-1331, labelled with NHS-NT647 dye in the MST experiments; activated with EDC/NHS in the cross-linking experiment)
T1 sequence (looked up): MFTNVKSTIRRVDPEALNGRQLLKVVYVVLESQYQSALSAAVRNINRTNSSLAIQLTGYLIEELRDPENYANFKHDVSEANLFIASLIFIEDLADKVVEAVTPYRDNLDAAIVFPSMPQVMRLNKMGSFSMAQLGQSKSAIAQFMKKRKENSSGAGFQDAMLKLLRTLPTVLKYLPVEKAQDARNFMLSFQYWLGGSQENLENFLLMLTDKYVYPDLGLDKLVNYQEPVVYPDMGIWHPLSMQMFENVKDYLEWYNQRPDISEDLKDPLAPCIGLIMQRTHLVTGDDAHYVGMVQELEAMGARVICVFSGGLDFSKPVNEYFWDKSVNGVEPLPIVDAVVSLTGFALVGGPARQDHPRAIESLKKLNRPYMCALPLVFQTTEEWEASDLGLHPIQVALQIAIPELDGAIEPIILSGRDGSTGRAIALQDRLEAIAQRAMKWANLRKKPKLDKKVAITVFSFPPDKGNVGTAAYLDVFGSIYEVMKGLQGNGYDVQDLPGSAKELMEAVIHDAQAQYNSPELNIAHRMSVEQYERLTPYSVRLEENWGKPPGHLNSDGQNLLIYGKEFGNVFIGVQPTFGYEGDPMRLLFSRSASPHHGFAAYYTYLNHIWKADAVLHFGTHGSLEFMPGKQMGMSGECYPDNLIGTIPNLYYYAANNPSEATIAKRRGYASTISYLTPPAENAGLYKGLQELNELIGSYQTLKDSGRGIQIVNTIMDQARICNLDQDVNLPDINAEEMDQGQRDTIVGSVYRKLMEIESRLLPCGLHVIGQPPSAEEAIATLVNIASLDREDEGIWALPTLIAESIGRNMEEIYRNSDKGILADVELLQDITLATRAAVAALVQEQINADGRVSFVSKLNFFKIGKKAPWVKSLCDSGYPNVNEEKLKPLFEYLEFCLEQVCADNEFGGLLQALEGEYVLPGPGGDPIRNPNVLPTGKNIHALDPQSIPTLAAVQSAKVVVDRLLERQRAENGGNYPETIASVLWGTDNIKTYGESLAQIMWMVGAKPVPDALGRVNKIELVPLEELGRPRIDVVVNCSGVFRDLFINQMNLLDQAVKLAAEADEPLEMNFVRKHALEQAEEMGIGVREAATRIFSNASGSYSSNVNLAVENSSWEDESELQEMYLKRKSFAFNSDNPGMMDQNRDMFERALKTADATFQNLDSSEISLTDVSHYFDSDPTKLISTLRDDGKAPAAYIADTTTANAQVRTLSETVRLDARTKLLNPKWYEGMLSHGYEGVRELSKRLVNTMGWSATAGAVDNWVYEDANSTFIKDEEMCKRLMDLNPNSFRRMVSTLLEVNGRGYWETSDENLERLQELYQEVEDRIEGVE

B1: ChlD S554R (natural protein)
chain: not shown
notes: Magnesium chelatase subunit ChlD, Synechocystis sp; PCC 6803, MIDAS motif point mutant; also called type II MIDAS mutant; source: E. coli, purified as wild type
B2: ChlD wild type (purified recombinant, Synechocystis) (natural protein)
chain: not shown
modifications: labelled with NHS-NT647 dye where it was the labelled partner in MST (ChlD-ChlD titration)
notes: Magnesium chelatase subunit ChlD (~75 kDa), Synechocystis sp; PCC 6803; also called WT ChlD
B3: ChlD D487E (natural protein)
chain: not shown
notes: Magnesium chelatase subunit ChlD, Synechocystis sp; PCC 6803, MIDAS motif point mutant; also called MIDAS mutant; source: E. coli, purified as wild type
B4: ChlD QuinE (E510Q/E513Q/E600T/E603P/E605T) (natural protein)
chain: not shown
notes: Magnesium chelatase subunit ChlD, Synechocystis sp; also called quintuplet mutant of ChlD; source: E. coli, purified (as described previously)
B5: ChlD S489A (natural protein)
chain: not shown
notes: as for B3
B6: ChlD S491A (natural protein)
chain: not shown
notes: as for B3
B7: ChlD truncation A (AAA+ domain alone) (domain or fragment)
chain: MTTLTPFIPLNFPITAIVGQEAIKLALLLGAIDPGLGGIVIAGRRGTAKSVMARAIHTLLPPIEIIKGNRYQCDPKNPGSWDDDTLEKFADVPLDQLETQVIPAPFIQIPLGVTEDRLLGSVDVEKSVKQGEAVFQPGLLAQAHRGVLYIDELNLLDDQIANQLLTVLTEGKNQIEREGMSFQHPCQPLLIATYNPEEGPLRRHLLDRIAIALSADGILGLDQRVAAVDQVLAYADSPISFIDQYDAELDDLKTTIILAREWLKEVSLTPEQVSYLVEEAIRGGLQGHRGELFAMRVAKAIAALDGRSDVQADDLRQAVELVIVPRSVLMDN
B8: ChlD truncation B (AAA+ domain with the polyproline region) (domain or fragment)
chain: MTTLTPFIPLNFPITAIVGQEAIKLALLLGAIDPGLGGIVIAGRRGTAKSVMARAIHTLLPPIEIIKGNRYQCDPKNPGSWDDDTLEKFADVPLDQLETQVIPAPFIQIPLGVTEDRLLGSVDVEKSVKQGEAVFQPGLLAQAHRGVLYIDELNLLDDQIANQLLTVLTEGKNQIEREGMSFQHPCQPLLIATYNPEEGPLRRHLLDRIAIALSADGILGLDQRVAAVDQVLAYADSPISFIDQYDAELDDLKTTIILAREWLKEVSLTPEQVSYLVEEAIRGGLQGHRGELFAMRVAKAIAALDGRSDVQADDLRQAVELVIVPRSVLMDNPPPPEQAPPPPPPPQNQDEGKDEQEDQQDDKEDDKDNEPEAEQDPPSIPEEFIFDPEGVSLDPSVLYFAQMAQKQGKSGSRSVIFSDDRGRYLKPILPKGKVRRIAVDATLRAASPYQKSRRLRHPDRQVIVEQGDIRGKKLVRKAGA

Target: T1, ChlH (purified recombinant, …)
Assay: cell-based or functional assay
Details: not given

Question: How did the “magnesium chelatase activity, rate relative to the wild-type protein” value turn out when B1 was run?
Answer: Its value is roughly 5%.

Target: the molecule itself
Assay: MST; control ChlD-ChlD titration (Supplementary Figure S3); monomer to dimer
Details: not given

Question: Which results are given for B2?
Answer: Kd: 296 nM; stoichiometry N: 2

Target: T1, ChlH (purified recombinant, …)
Assay: MST; ChlD (or variant) titrated into 20 nM NT647-labelled ChlH; 50 mM Tris/NaOH, 0.2% Pluronic F-127, pH 7.8, without Mg2+; single-site model; Kd is an empirical description over all oligomeric states of ChlD
Details: both partners purified

Question: With B2 as the binder, how does the Kd read?
Answer: Its Kd is 2100 nM.

Question: With B3 as the binder, how does the Kd read?
Answer: Its Kd is 1490 nM.

Question: B4 was tested. Which Kd did it give?
Answer: The Kd was 512 nM.

Question: Which Kd does the source give for B5 here?
Answer: Its Kd is 3210 nM.

Question: With B6 as the binder, how does the Kd read?
Answer: The Kd was 351 nM.

Question: B1 was tested. Which Kd did it give?
Answer: Its Kd is 988 nM.

Question: Which Kd does the source give for B7 here?
Answer: Its Kd is 5930 nM.

Question: For B8, which Kd is on record?
Answer: The Kd was 6760 nM.

Target: T1, ChlH (purified recombinant, …)
Assay: MST; ChlD (or variant) titrated into 20 nM NT647-labelled ChlH; 50 mM Tris/NaOH, 0.2% Pluronic F-127, pH 7.8, with 10 mM Mg2+; single-site model; Kd is an empirical description over all oligomeric states of ChlD
Details: both partners purified

Question: B2 was tested. Which Kd did it give?
Answer: Its Kd is 331 nM.

Question: For B3, which Kd is on record?
Answer: Its Kd is 842 nM.

Question: For B4, which Kd is on record?
Answer: Its Kd is 339 nM.

Question: With B5 as the binder, how does the Kd read?
Answer: Its Kd is 1980 nM.

Question: Which Kd does the source give for B6 here?
Answer: Its Kd is 147 nM.

Question: How did the Kd turn out when B1 was run?
Answer: Its Kd is 481 nM.

Question: B7 was tested. Which Kd did it give?
Answer: Its Kd is 14600 nM.

Question: B8 was tested. Which Kd did it give?
Answer: The Kd was 10500 nM.
